Here are results for 2 molecules from patent US20090214627.

Series [1] concerns insulin receptor substrate-1 (IRS-1) peptide Y^608.
Series [2] deals with T1, Peptide 1: Lys-Lys-His-Ala-Asp-Asp-Gly-Ala-Met-Pro-Met-Ser-Pro-Gly-Val-Ala (mutant IRS-1 peptide).
T1 chain: KKHADDGAMPMSPGVA

The target of series [3] is T2, Peptide 2: Arg-Thr-Glu-Ser-Ile-Thr-Ala-Thr-Ser-Pro-Ala-Ser-Met-Val-Gly-Gly-Lys-Pro (second IRS-1 peptide).
T2 chain: RTESITATSPASMVGGKP

Series [4] has as its target insulin receptor substrate-1 (IRS-1) peptide Y^608. The source holds these as a separate data set.

“GST-hBVR G17 mutant (GVGRA to GVARA), ATP binding domain mutant”: the “IRS phosphorylation by BVR (32P kinase assay)” value in series [1] is recorded as “G^17 mutation, for the most part, prevented IRS phosphorylation by BVR”.

B1: GST-hBVR fusion protein, wild type (human biliverdin reductase fused to glutathione-S-transferase) (protein)
chain: MNAEPERKFGVVVVGVGRAGSVRMRDLRNPHPSSAFLNLIGFVSRRELGSIDGVQQISLEDALSSQEVEVAYICSESSSHEDYIRQFLNAGKHVLVEYPMTLSLAAAQELWELAEQKGKVLHEEHVELLMEEFAFLKKEVVGKDLLKGSLLFTSDPLEEDRFGFPAFSGISRLTWLVSLFGELSLVSATLEERKEDQYMKMTVCLETEKKSPLSWIEEKGPGLKRNRYLSFHFKSGSLENVPNVGVNKNIFLKDQNIFVQKLLGQFSEKELAAEKKRILHCLGLAEEIQKYCCSRK
Regarding B1, the “peptide phosphorylation by BVR (32P retained on P81 filters)” value (“peptide phosphorylation by BVR” for short) in series [2] was “both the mutated and unmutated peptides were phosphorylated to about the same extent (1049±78 cpm and 1081±183 cpm respectively)”. The “peptide phosphorylation by BVR” value in series [3] was “this peptide is also a suitable substrate for BVR (1198±230 cpm)”. In series [4], the “IRS-1 phosphorylation by BVR (32P kinase assay)” value is recorded as “IRS-1 is a substrate for BVR”; the “peptide phosphorylation by BVR” value was “both the mutated and unmutated peptides were phosphorylated to about the same extent (1049±78 cpm and 1081±183 cpm respectively)”; the “phosphorylation of BVR by IRK in the presence of increasing molar ratio of IRS/BVR” value is “in the presence of increasing amounts of IRS, there was an increase in phosphorylation of BVR by IR up to equimolar ratio of IRS/BVR”.
